From patent publication US20040063184A1, “Fermentation processes and compositions” (priority 2002, published 2004)

Assays:
Assay type in all cases: cell-based
yeast [1] = assay: Example 4: LSF ethanol fermentation with lipases, purified lipases, ferric sulfate; conditions: Candida antarctica lipase 400 LU/g DS, purified lipases 100 LU/g DS
Procedure: Example 4 was conducted on dry milled corn according to a simultaneous liquefaction5 saccharification-fermentation (LSF) protocol. The experiment was carried out on ground yellow corn using a glucoamylase and alpha amylase for fermenting ethanol with and without lipase, as described in examples 2 and 3. Fermentations were carried out at pH=5.0, 32° C. for several hours. In addition to Candida antarctica lipase and inactivated Candida antarctica lipase, feric sulfate and purified lipases from Candida cylindracea lipase and Candida antarctica lipase A, were also compared. Four times less of the purified lipase was used.

yeast [2] = assay: Example 14: LSF ethanol fermentation with and without laccase; conditions: additive with glucoamylase: 0.1 M NaCl & 0.7 GAU/g DS, NZ 525 0.5% DS & 0.9 GAU/g DS, laccase 0.2% DS & 1.0 GAU/g DS
Procedure: The addition of a laccase was tested under anaerobic fermentation conditions analogous to ethanol fermenting experiments. The experiment was conducted on dry milled yellow corn according to a simultaneous liquefaction-saccharification-fermentation (LSF) protocol. The experiment was carried out using a glucoamylase (Spirizyme plus, available from Novozymes A/S) for fermenting ethanol, with and without laccase. Fermentations were carried out at pH=5.0, 32° C. for several hour. The process was monitored with time and analyzed for CO2 weight loss, percent ethanol produced and theoretical conversion of the starch.

yeast [3] = assay: Example 2: LSF ethanol fermentation of ground yellow corn with esterases; conditions: esterase 200 U/g DS
Procedure: Example 2 was conducted on dry milled ground yellow corn according to a simultaneous liquefaction-saccharification-fermentation (LSF) protocol. The experiment was carried out using a glucoamylase (Spirizyme Plus, available from Novozymes A/S) in an amount of 0.8 GAU/g DS and a fungal alpha amylase (SP288, available from Novozymes A/S) in an amount of 2.6 AFAU/g DS for fermenting ethanol along with the addition of:
(A) lipase (LIPOLASE, available from Novozymes A/S),
(B) Candida antarctica lipase,
(C) cutinase (JC 492, available from Novozymes A/S)
(D) phospholipase (LECITASE available from Novozymes A/S),
(E) inactivated Candida antarctica lipase (inactivated by boiling for three hours), and
(F) a control (glucoamylase and amylase without esterase addition).
The esterases were added in an amount corresponding to 200 U/g DS. Fermentations were carried out at pH=5.0, 32° C. for several hours. The process was monitored with time and ana20 lyzed for CO2 weight loss, percent ethanol produced and theoretical conversion of the starch.

Ethanol Red yeast [4] = assay: Example 8: as Example 6 with protease in the fermentation medium
Procedure: This experiment was carried out using the same experimental conditions and enzyme concentrations described in Example 6, with the exception that protease (Novozyme 50006, 0.007% DS) was also added to the fermentation medium with an increased sample volume.
To eliminate the possibility that a substance in the CALB formulation was contributing to the effect obtained, inactivated CALB was also used. A control was prepared by inactivating CALB by boiling for 3 hours. Upon completion of boiling, the volume was adjusted to the initial value with DI water, and sample was spun down at 3,000 rpm for 20 min. The liquid layer was forced through the 0.45-μm filter. The enzyme was thereby completely inactivated.

Ethanol Red yeast [5] = assay: Example 10: Lipolase 100 T versus purified Lipolase
Procedure: In this example, Lipolase 100 T and purified Lipolase (both available from Novozymes A/S) were compared. The Experimental conditions were as follows: Ethanol Red yeast, 36% DS, 1.5 GAU/g DS Spirizyme Fuel, 0.8 AFAU/g DS SP 288. Yeast was propagated with maltodextrin and protease. Fermentation was carried out in 25-ml fermentors at 32.2° C. without mixing for 72 h. A control was run as described, without the addition of lipase.

`O=S(=O)([O-])[O-].O=S(=O)([O-])[O-].O=S(=O)([O-])[O-].[Fe+3].[Fe+3]` [Fe2(SO4)3] was tested, and the “Calculated ethanol, % v/v” value (yeast [1]; 24 h) was 11.58 ± 0.13 % v/v, the “Efficiency, %” value (yeast [1]; 24 h) was 52.79 ± 0.67% and the “Calculated ethanol, % v/v” value (yeast [1]; 48 h) was 16.87 ± 0.43 % v/v. For the same molecule, the “Efficiency, %” value (yeast [1]; 48 h) was 81.84 ± 2.57%, the “Calculated ethanol, % v/v” value (yeast [1]; 72 h) was 18.82 ± 0.91 % v/v and the “Efficiency, %” value (yeast [1]; 72 h) was 91.00 ± 2.45%.

With `[Cl-].[Na+]` [NaCl] the “HPLC ethanol, % v/v” value (yeast [2]; 7 h) was 1.88 % v/v, the “HPLC ethanol, % v/v” value (yeast [2]; 23 h) was 7.91 % v/v and the “HPLC ethanol, % v/v” value (yeast [2]; 29 h) was 8.78 % v/v. The “HPLC ethanol, % v/v” value (yeast [2]; 47 h) was 10.30 % v/v, the “HPLC ethanol, % v/v” value (yeast [2]; 55 h) was 10.94 % v/v and the “HPLC ethanol, % v/v” value (yeast [2]; 119 h) was 14.61 % v/v.

B1: Candida antarctica lipase inactive: Candida antarctica lipase inactivated by boiling for three hours (protein, UniProt P41365 26-342, looked up)
Lipase B: LPSGSDPAFSQPKSVLDAGLTCQGASPSSVSKPILLVPGTGTTGPQSFDSNWIPLSTQLGYTPCWISPPPFMLNDTQVNTEYMVNAITALYAGSGNNKLPVLTWSQGGLVAQWGLTFFPSIRSKVDRLMAFAPDYKGTVLAGPLDALAVSAPSVWQQTTGSALTTALRNAGGLTQIVPTTNLYSATDEIVQPQVSNSPLDSSYLFNGKNVQAQAVCGPLFVIDHAGSLTSQFSYVVGRSALRSTTGQARSADYGITDCNPLPANDLTPEQKVAAAALLAPAAAAIVAGPKQNCEPDLMPYARPFAVGKRTCSGIVTP
modifications: heat-inactivated by boiling
B1 was tested, and the “Calculated ethanol, % v/v” value (yeast [3]; 24 h) was 11.43 ± 0.08 % v/v, the “Efficiency, %” value (yeast [3]; 24 h) was 52.88 ± 0.40% and the “Calculated ethanol, % v/v” value (yeast [3]; 48 h) was 16.88 ± 0.15 % v/v. The “Efficiency, %” value (yeast [3]; 48 h) was 83.18 ± 0.89%, the “Efficiency, %” value (yeast [3]; 72 h) was 90.89 ± 0.25% and the “HPLC ethanol, % v/v” value (yeast [3]; 72 h) was 19.49 ± 0.04 % v/v. The “Calculated ethanol, % v/v” value (yeast [1]; 24 h) was 10.59 ± 0.16 % v/v, the “Efficiency, %” value (yeast [1]; 24 h) was 49.33 ± 0.85% and the “Calculated ethanol, % v/v” value (yeast [1]; 48 h) was 16.91 ± 0.30 % v/v. The “Efficiency, %” value (yeast [1]; 48 h) was 84.73 ± 1.77%, the “Calculated ethanol, % v/v” value (yeast [1]; 72 h) was 18.65 ± 0.40 % v/v and the “Efficiency, %” value (yeast [1]; 72 h) was 95.49 ± 2.53%. The “effect on ethanol yield and efficiency” value (Ethanol Red yeast [4]) was “no significant difference between ethanol yield of control samples and ethanol yield of samples treated with inactivated CALB”.

B2: Lipolase (purified): purified Lipolase, available from Novozymes A/S (protein, UniProt O59952 23-291, looked up)
Lipase: EVSQDLFNQFNLFAQYSAAAYCGKNNDAPAGTNITCTGNACPEVEKADATFLYSFEDSGVGDVTGFLALDNTNKLIVLSFRGSRSIENWIGNLNFDLKEINDICSGCRGHDGFTSSWRSVADTLRQKVEDAVREHPDYRVVFTGHSLGGALATVAGADLRGNGYDIDVFSYGAPRVGNRAFAEFLTVQTGGTLYRITHTNDIVPRLPPREFGYSHSSPEYWIKSGTLVPVTRNDIVKIEGIDATGGNNQPNIPDIPAHLWYFGLIGTCL
In the case of B2, the “Change, % v/v vs. control (efficiency)” value (Ethanol Red yeast [5]; 1 LU/g DS) is reported as “+1.00 % v/v”, the “Change, % v/v vs. control (ethanol)” value (Ethanol Red yeast [5]; 1 LU/g DS) is reported as “+0.31 % v/v” and the “Efficiency, %” value (Ethanol Red yeast [5]; 1 LU/g DS) is reported as 84.00%. For the same molecule, the “Ethanol, % v/v in beer” value (Ethanol Red yeast [5]; 1 LU/g DS) was 18.41 % v/v, the “Change, % v/v vs. control (efficiency)” value (Ethanol Red yeast [5]; 10 LU/g DS) was “+0.49 % v/v” and the “Change, % v/v vs. control (ethanol)” value (Ethanol Red yeast [5]; 10 LU/g DS) was “+0.52 % v/v”. For the same molecule, the “Efficiency, %” value (Ethanol Red yeast [5]; 10 LU/g DS) was 83.49%, the “Ethanol, % v/v in beer” value (Ethanol Red yeast [5]; 10 LU/g DS) was 18.62 % v/v and the “Change, % v/v vs. control (efficiency)” value (Ethanol Red yeast [5]; 100 LU/g DS) was “+0.57 % v/v”. The “Change, % v/v vs. control (ethanol)” value (Ethanol Red yeast [5]; 100 LU/g DS) was “+0.14 % v/v”, the “Efficiency, %” value (Ethanol Red yeast [5]; 100 LU/g DS) was 83.57% and the “Ethanol, % v/v in beer” value (Ethanol Red yeast [5]; 100 LU/g DS) was 18.24 % v/v.
